These results are taken from paper PMC7684300 (Cell Discovery, 2020).

The target in test [1] is T1, human ORC1 (origin recognition complex subunit 1), full-length (human, UniProt Q13415 1-861).
T1 construct: Origin recognition complex subunit 1, human, full-length codon-optimized synthetic gene; No removal of the tag is described; HsORC1–5 was eluted from Streptactin beads with desthiobiotin; Samples for cryo-EM were mildly cross-linked with glutaraldehyde (GraFix); also called HsORC1; source: Sf21 insect cells, MultiBac baculovirus, co-overexpressed with the other ORC subunits; not shown: twin-strep …
T1 sequence (looked up): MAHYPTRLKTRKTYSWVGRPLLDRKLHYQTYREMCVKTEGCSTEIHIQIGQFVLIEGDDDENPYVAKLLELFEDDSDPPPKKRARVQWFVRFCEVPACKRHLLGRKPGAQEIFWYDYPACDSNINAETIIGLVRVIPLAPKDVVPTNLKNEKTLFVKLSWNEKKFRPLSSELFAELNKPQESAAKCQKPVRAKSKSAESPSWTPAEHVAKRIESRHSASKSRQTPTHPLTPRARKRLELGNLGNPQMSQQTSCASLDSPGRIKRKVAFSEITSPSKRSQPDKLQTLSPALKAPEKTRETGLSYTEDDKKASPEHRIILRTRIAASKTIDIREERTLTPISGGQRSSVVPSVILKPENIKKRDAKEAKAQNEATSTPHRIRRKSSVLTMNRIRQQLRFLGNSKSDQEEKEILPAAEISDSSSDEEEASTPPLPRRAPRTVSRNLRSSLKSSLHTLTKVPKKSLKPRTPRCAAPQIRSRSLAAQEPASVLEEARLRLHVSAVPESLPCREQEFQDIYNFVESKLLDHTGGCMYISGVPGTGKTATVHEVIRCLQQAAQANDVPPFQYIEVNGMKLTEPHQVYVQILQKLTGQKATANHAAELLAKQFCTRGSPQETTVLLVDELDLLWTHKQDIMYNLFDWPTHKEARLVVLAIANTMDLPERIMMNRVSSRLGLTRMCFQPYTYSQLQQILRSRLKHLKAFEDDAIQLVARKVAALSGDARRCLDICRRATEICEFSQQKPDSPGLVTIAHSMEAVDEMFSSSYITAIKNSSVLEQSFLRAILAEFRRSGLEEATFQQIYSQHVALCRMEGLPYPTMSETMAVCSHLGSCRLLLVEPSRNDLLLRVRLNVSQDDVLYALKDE
The test can be described thus: cryo-EM structure; HsORC1–5 purified by two steps (anti-HA beads, Streptactin beads) after high-salt treatment, mild fixation by GraFix; map at 4.4 Å, State I 5.0 Å, State II 4.8 Å, four subgroups by local classification on ORC1-AAA+. Particulars: both partners purified.

Test [2] concerns the target T1, human ORC1 (origin recognition complex …). The test can be described thus: co-IP; anti-Flag immunoprecipitation (M2-flag affinity beads, eluted with 0.5 mg/mL flag peptide) of N-terminal Flag-tagged ORC2 from soluble lysate of insect cells co-overexpressing ORC1 to ORC6; lysis buffer A: 25 mM HEPES-KOH pH 7.6, 0.2 M KCl, 5 mM ATP, 10% glycerol, 0.05% NP-40. Particulars: partners not purified.

B1: human ORC4 (origin recognition complex subunit 4), full-length (natural protein, UniProt O43929 1-436, looked up)
chain: MSSRKSKSNSLIHTECLSQVQRILRERFCRQSPHSNLFGVQVQYKHLSELLKRTALHGESNSVLIIGPRGSGKTMLINHALKELMEIEEVSENVLQVHLNGLLQINDKIALKEITRQLNLENVVGDKVFGSFAENLSFLLEALKKGDRTSSCPVIFILDEFDLFAHHKNQTLLYNLFDISQSAQTPIAVIGLTCRLDILELLEKRVKSRFSHRQIHLMNSFGFPQYVKIFKEQLSLPAEFPDKVFAEKWNENVQYLSEDRSVQEVLQKHFNISKNLRSLHMLLMLALNRVTASHPFMTAVDLMEASQLCSMDSKANIVHGLSVLEICLIIAMKHLNDIYEEEPFNFQMVYNEFQKFVQRKAHSVYNFEKPVVMKAFEHLQQLELIKPMERTSGNSQREYQLMKLLLDNTQIMNALQKYPNCPTDVRQWATSSLSWL
notes: Origin recognition complex subunit 4, human, full-length codon-optimized synthetic gene; No tag is named for this subunit; Samples for cryo-EM were mildly cross-linked with glutaraldehyde (GraFix); also called HsORC4; source: Sf21 insect cells, MultiBac baculovirus, co-overexpressed with the other ORC subunits
With B1, the binding result in test [1] is “binds”.

B2: human ORC2 (origin recognition complex subunit 2), full-length (natural protein, UniProt Q13416 1-577, looked up)
chain: MSKPELKEDKMLEVHFVGDDDVLNHILDREGGAKLKKERAQLLVNPKKIIKKPEYDLEEDDQEVLKDQNYVEIMGRDVQESLKNGSATGGGNKVYSFQNRKHSEKMAKLASELAKTPQKSVSFSLKNDPEITINVPQSSKGHSASDKVQPKNNDKSEFLSTAPRSLRKRLIVPRSHSDSESEYSASNSEDDEGVAQEHEEDTNAVIFSQKIQAQNRVVSAPVGKETPSKRMKRDKTSDLVEEYFEAHSSSKVLTSDRTLQKLKRAKLDQQTLRNLLSKVSPSFSAELKQLNQQYEKLFHKWMLQLHLGFNIVLYGLGSKRDLLERFRTTMLQDSIHVVINGFFPGISVKSVLNSITEEVLDHMGTFRSILDQLDWIVNKFKEDSSLELFLLIHNLDSQMLRGEKSQQIIGQLSSLHNIYLIASIDHLNAPLMWDHAKQSLFNWLWYETTTYSPYTEETSYENSLLVKQSGSLPLSSLTHVLRSLTPNARGIFRLLIKYQLDNQDNPSYIGLSFQDFYQQCREAFLVNSDLTLRAQLTEFRDHKLIRTKKGTDGVEYLLIPVDNGTLTDFLEKEEEEA
notes: Origin recognition complex subunit 2, human, full-length codon-optimized synthetic gene; Samples for cryo-EM were mildly cross-linked with glutaraldehyde (GraFix); also called HsORC2; source: Sf21 insect cells, MultiBac baculovirus, co-overexpressed with the other ORC subunits; anti-HA then Streptactin beads for HsORC1–5); not shown: 3x Flag, N-terminal, kept
With B2, the binding result in test [2] is on record as “binds”.

B3: human ORC5 (origin recognition complex subunit 5), full-length (natural protein, UniProt O43913 1-435, looked up)
chain: MPHLENVVLCRESQVSILQSLFGERHHFSFPSIFIYGHTASGKTYVTQTLLKTLELPHVFVNCVECFTLRLLLEQILNKLNHLSSSEDGCSTEITCETFNDFVRLFKQVTTAENLKDQTVYIVLDKAEYLRDMEANLLPGFLRLQELADRNVTVLFLSEIVWEKFRPNTGCFEPFVLYFPDYSIGNLQKILSHDHPPEYSADFYAAYINILLGVFYTVCRDLKELRHLAVLNFPKYCEPVVKGEASERDTRKLWRNIEPHLKKAMQTVYLREISSSQWEKLQKDDTDPGQLKGLSAHTHVELPYYSKFILIAAYLASYNPARTDKRFFLKHHGKIKKTNFLKKHEKTSNHLLGPKPFPLDRLLAILYSIVDSRVAPTANIFSQITSLVTLQLLTLVGHDDQLDGPKYKCTVSLDFIRAIARTVNFDIIKYLYDFL
notes: Origin recognition complex subunit 5, human, full-length codon-optimized synthetic gene; Samples for cryo-EM were mildly cross-linked with glutaraldehyde (GraFix); also called HsORC5; source: Sf21 insect cells, MultiBac baculovirus, co-overexpressed with the other ORC subunits; not shown: HA, C-terminal, kept
Consider B3, for which, in test [1], the binding result was “binds”.
